This is an account of results in PMC3502752.

What all share (conditions): ELISA: 20 mM Tris-HCl pH 7.5, 100 mM NaCl, room temperature, 1 h (washes with 0.02% Tween-20); SPR conditions not in the material
(In general: ELISA stands for enzyme-linked immunosorbent assay.)

Data set [1] relates to BV04-01 scFv (SCA04-01) (mouse (lupus-prone)). Put plainly: SPR. (SPR reads the build-up and loss of mass on a sensor chip optically.)
The subject of data set [2] is BV04-01 scFv VH A23P (mouse (lupus-prone)). As to the kind of experiment: SPR.
The subject of data set [3] is MRL-4 scFv (mouse). As to the kind of experiment: SPR.
Data set [4] concerns MRL-4 scFv VH P23A (mouse). As to the kind of experiment: SPR.
Data set [5] deals with BV04-01 scFv (SCA04-01) (mouse (lupus-prone)). As to the kind of experiment: ELISA.
The subject of data set [6] is BV04-01 scFv VH A23P (mouse (lupus-prone)). Put plainly: ELISA.
Data set [7] deals with MRL-4 scFv (mouse). Put plainly: ELISA.
The test system of data set [8] is MRL-4 scFv VH P23A (mouse). Put plainly: ELISA.

As a reminder, the Kd is the concentration at which binding is half-saturated. A low value points to a tighter complex. With “double-stranded DNA fragments (SPR ligand)”, the equilibrium dissociation constant (Kd) in data set [1] turned out to be 0.0018 µM; in data set [2], 0.29 µM; in the data set with MRL-4 scFv (mouse) [3] it was 0.017 µM; in data set [4], 8.5 µM.
Turning to 254-bp PCR fragment (ELISA), the binding signal (in data set [5]; in the data set with MRL-4 scFv (mouse) [7]) was 100% throughout. The binding signal (% of BV04-01 wild type) in data set [6] was determined as 1.2. Further, the binding signal (% of MRL-4 wild type) in data set [8] came to 4.6.
